Usually Kd stands for the equilibrium constant for the complex coming apart. Low readings indicate a tighter complex, high ones a looser complex.

This series deals with S1 zinc finger array (six-finger designed ZF) (artificial (designed)). Briefly: EMSA. The following applies: EMSA: ZBA buffer (composition not given), 0.05% NP-40, 0.1 mg/ml BSA, 10% glycerol, 35-75 pM target, 1.5 h at room temperature; pH not given. A general note: In EMSA bound probe runs differently from free probe, usually more slowly.

In turn, “CCTCTTCGCTATTACGCCAGCCATGCGTAGGGAGCCGCGGAACGTTCGATCGTACTCGAGTCAGGGTG (double strand) [S1 target site EMSA probe]” displayed a Kd of 5 nM.

Values taken from paper PMC4786922.
